Laboratory results reported in article PMC6042391.
Changes are numbered by the printed parent chain.

T1: tau peptide V1089–24
T1 sequence (peptide, phosphoserine at Ser422; biotin (position not stated)): SSTGSIDMVDSPQLATLA

B1: Fab-dmCBTAU-22.1 (Fab, V domains shown)
VH: QVQLVQSGAEVKKPGAPVKVSCETSGYRFSDYFVHWVRQAPGQGPEWIGRIRPNSGGTKYAQKFQGRVTMTRDMSMNTAYMELSGLRSDDTAVYYCVRGHCDGTTCSRAYWGQGTLVTVSS
VL: DVVMTQSPLSLPVTPGEPASISCRSSQSLLHRSGHKYLHWYLQRPGQSPQVLIYLGSNRASGVPDRFSGSGSGTDFTLKISRVEAEDVGLYYCMQTLQTPWTFGQGTKVEIK
B2: Fab-CBTAU-22.1 (Fab, V domains shown)
VH: B1 VH with F33N, R52S
VL: B1 VL

Target: T1, tau peptide V1089–24
Assay: BLI; biotinylated peptide V1089–24 (1 μg/ml) on streptavidin biosensors; 13 Fab concentrations in ForteBio's kinetics buffer; 600 s association, 600 s dissociation; steady state analysis

| Binder | Kd [nM] |
| --- | --- |
| B1 | 240 |
| B2 | 5600 |
